Assay results reported in patent US20090004190A1, “Rage Fusion Proteins And Methods Of Use” (priority 2006, published 2009).
Several values for one entry are separate records, joined by “and”; a condition that tells them apart may be missing. Identical values can stand only once.

Columns and labels:
amphoterin (Ampho) = molecular target: T1, amphoterin (Ampho) (Homo sapiens, UniProt P09429); test: In vitro ligand binding (ELISA) to immobilized amphoterin; settings: ligand 5 micrograms per well; FIG. 7
T1 sequence (P09429 1-215): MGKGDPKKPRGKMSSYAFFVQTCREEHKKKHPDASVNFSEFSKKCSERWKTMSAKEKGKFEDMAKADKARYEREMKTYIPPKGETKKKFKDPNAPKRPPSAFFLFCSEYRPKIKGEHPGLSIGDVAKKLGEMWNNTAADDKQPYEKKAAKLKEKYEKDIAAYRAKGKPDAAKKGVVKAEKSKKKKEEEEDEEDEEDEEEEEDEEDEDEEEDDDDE
Description: For example, the RAGE fusion protein may be used in a binding assay to identify potential RAGE ligands. In one example embodiment of such a binding assay, a known RAGE ligand may coated onto a solid substrate (e.g., Maxisorb plates) at a concentration of about 5 micrograms per well, where each well contains a total volume of about 100 microliters (μL). The plates may be incubated at 4° C. overnight to allow the ligand to absorb. Alternatively, shorter incubation periods at higher temperature (e.g., room temperature) may be used. […] The RAGE fusion protein bound to the immobilized ligand may be detected in a variety of ways. […] The bound complex may be detected by adding the alkaline phosphatase substrate, para-nitrophenylphosphate (PNPP), and measuring conversion of PNPP to para-nitrophenol (PNP) as an increase in absorbance at 405 nm. […] In the absence of ligand (i.e., coating with only BSA) there was no increase in absorbance. […] Binding was detected by the addition of an immunodetection complex containing a monoclonal mouse anti-human IgG1 diluted 1:11,000 to a final assay concentration (FAC) of 21 ng/100 μL, a biotinylated goat anti-mouse IgG diluted 1:500, to a FAC of […], and an avidin-linked alkaline phosphatase. […]

[1] = tested on: S100b/RAGE-induced production of TNF-α in THP-1 cells; test: Inhibition of S100b/RAGE-induced production of TNF-α in THP-1 cells; type: cell-based; settings: 10 μg protein, FIG. 10
Source text: Use of the RAGE fusion proteins of the present invention to modulate expression of the cellular effector TNF-α is shown in FIG. 10. THP-1 myeloid cells may be cultured in RPMI-1640 media supplemented with 10% FBS and induced to secrete TNF-α via stimulation of RAGE with S100b. When such stimulation occurs in the presence of a RAGE fusion protein, induction of TNF-α by S100b binding to RAGE may be inhibited.
Previous work has shown that the myeloid THP-1 cells may secrete TNF-α in response to RAGE ligands. In this assay, THP-1 cells were cultured in RPMI-1640 media supplemented with 10% FBS using a protocol provided by ATCC. […] The amount of TNF-α secreted by the THP-1 cells was measured 24 hours after the addition of the proteins to the cell culture using a commercially available ELISA kit for TNF-α (R&D Systems, Minneapolis, Minn.).

[2] = tested on: recurrent diabetes in NOD/LtJ mice with syngeneic islet transplants; test: Syngeneic islet transplantation in diabetic NOD mice; type: in vivo, mouse; settings: 300 ug LD + 100 ug qod ip
Source text: Spontaneous autoimmune non-obese diabetic mice (NOD/LtJ) (12-25 weeks old) served as recipients for islet cells, while young pre-diabetic NOD/LtJ mice (6-7 weeks old) served as donors in syngeneic islet transplantation. Islets for transplantation were isolated as described above in Section A (Allogeneic Islet Transplantation).
Diabetic NOD/LtJ mice received islet grafts within 2 days of the diagnosis of diabetes. 500-600 freshly isolated islets (approximately 550 islet equivalents) from donor mice were picked up with an infusion set and transplanted into the subcapular space of the right kidney.
Test compounds were administered as soon as the islets were transplanted and continued for approximately 8 weeks.
Islet graft function was monitored by serial blood glucose measurements daily for the first 2 weeks after islet transplantation, followed by every other day thereafter. Reversal of diabetes was defined as blood glucose less than 200 mg/dl on two consecutive measurements. Percentage graft loss was determined when blood glucose exceeded 250 mg/dl on two consecutive measurements.

binding to immobilized amphoterin (absorbance at 405 nm) (amphoterin (Ampho)): specifically interact
B1: TTP-4000: four domain RAGE fusion protein: human RAGE V and C1 domains with interdomain linkers (to residue 251) fused to human IgG1 CH2 and CH3; SEQ ID NO: 34/56 (protein, listed as Homo sapiens)
chain: QNITARIGEPLVLKCKGAPKKPPQRLEWKLNTGRTEAWKVLSPQGGGPWDSVARVLPNGSLFLPAVGIQDEGIFRCQAMNRNGKETKSNYRVRVYQIPGKPEIVDSASELTAGVPNKVGTCVSEGSYPAGTLSWHLDGKPLVPNEKGVSVKEQTRRHPETGLFTLQSELMVTPARGGDPRPTFSCSFSPGLPRHRALRTAPIQPRVWEPVPLEEVQLVVEPEGGAVAPPSVFLFPPKPKDTLMISRTPEVTCVVVDVSHEDPEVKFNWYVDGVEVHNAKTKPREEQYNSTYRVVSVLTVLHQDWLNGKEYKCKVSNKALPAPIEKTISKAKGQPREPQVYTLPPSRDELTKNQVSLTCLVKGFYPSDIAVEWESNGQPENNYKTTPPVLDSDGSFFLYSKLTVDKSRWQQGNVFSCSVMHEALHNHYTQKSLSLSPGK
blocking S100b induction of TNF-α compared with sRAGE [1]: at least as effective | reduction of S100b induction of TNF-α ([1]; S100b 0.1 mg/ml FAC, 24 hours): ~70% | day of graft loss, Mean [2]: 39.875 days | day of graft loss, each animal ([2]; blood glucose exceeded 250 mg/dl): 38 day (2×) and 40 day and 43 day and 36 day and 45 day and 44 day and 35 day
